Experimental data as given in article PMC8458463, “Liquid condensation of reprogramming factor KLF4 with DNA provides a mechanism for chromatin organization”.

What was measured:
Settings in all cases: protein: recombinant; tags: Nano-His6-TEV tag cleaved
KLF4 DBD [1] = target: T1, KLF4 DBD (human, UniProt O43474 418-513); assay: EMSA; Zn2+; 1 uM DNA, 0-6 uM DBD; 1:1, 2:1 and 3:1 complexes, 3:1 needs 6 equivalents; EMSA: 20 mM Tris pH 8, 50 mM NaCl, 5% glycerol, 0.01 mg/ml BSA, 0.1 mM DTT, 0.05 mM TCEP; gel run at 4 C; protein refolded with 3.3 eq ZnSO4
T1 sequence (O43474 418-513): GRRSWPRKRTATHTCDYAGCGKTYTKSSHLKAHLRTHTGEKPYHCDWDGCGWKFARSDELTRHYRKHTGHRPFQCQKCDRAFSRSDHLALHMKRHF

KLF4 DBD [2] = target: T1, KLF4 DBD; assay: X-ray crystallography; Zn2+; 2.14 A, 1:1 complex; EMSA: 20 mM Tris pH 8, 50 mM NaCl, 5% glycerol, 0.01 mg/ml BSA, 0.1 mM DTT, 0.05 mM TCEP; gel run at 4 C; protein refolded with 3.3 eq ZnSO4
KLF4 DBD [3] = target: T1, KLF4 DBD; assay: EMSA; Zn2+; DBD up to 15 uM; EMSA: 20 mM Tris pH 8, 50 mM NaCl, 5% glycerol, 0.01 mg/ml BSA, 0.1 mM DTT, 0.05 mM TCEP; gel run at 4 C; protein refolded with 3.3 eq ZnSO4
KLF4 DBD [4] = target: T1, KLF4 DBD; assay: EMSA; Zn2+; 1 uM DNA, 0-6 uM DBD; 3:1 complex at 3 equivalents, tighter than NANK; EMSA: 20 mM Tris pH 8, 50 mM NaCl, 5% glycerol, 0.01 mg/ml BSA, 0.1 mM DTT, 0.05 mM TCEP; gel run at 4 C; protein refolded with 3.3 eq ZnSO4

B1: NANK (dsDNA)
DNA 1: AGGGGGTGTGCCCGCCAGGAGGGGTGGGTC
DNA 2: GACCCACCCCTCCTGGCGGGCACACCCCCT
- binding result (KLF4 DBD [1]): binds

B2: NKA (dsDNA)
DNA 1: AGGGGGTGTGCC
DNA 2: GGCACACCCCCT
- binding result (KLF4 DBD [2]): binds

B3: NKC (dsDNA)
DNA 1: GAGGGGTGGGTC
DNA 2: GACCCACCCCTC
- binding result (KLF4 DBD [3]): binds

B4: NANKm (dsDNA)
DNA 1: AGGGGGTGTGCCCGCCAGGAGGGGTGGGTC
DNA 2: GACCCACCCCTCCTGGCGGGCACACCCCCT
modifications: 5-methyl-dC at position 13 of strand 1 (CpG in KLFB); complement strand methylation not stated
- binding result (KLF4 DBD [4]): binds

B5: NKB (dsDNA)
DNA 1: TGCCCGCCAGGA
DNA 2: TCCTGGCGGGCA
- binding result (KLF4 DBD [3]): binds
